T1: LAMT-YFPN (loganic acid methyltransferase fused to the N-terminal split YFP fragment) (UniProt B2KPR3 1-371)
T1 construct: Control construct of the BiFC assay; also called LAMT-YN; not shown: N-terminal split YFP fragment (YFPN)
T1 sequence (looked up): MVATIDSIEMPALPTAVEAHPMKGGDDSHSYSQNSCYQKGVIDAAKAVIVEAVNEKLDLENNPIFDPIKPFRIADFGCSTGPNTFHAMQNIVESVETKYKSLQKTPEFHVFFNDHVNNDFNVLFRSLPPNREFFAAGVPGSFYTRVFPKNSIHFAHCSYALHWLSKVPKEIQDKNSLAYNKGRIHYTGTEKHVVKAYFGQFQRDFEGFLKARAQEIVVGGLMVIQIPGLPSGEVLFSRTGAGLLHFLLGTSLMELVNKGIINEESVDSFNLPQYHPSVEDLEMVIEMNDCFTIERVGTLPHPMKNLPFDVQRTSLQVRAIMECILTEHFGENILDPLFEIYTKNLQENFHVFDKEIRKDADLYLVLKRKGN

T2: LAMT-YFPC (loganic acid methyltransferase fused to the C-terminal split YFP fragment) (UniProt B2KPR3 1-371)
T2 construct: Control construct of the BiFC assay; also called LAMT-YC; not shown: C-terminal split YFP fragment (YFPC)
T2 sequence (looked up): T1 sequence (looked up)

B1: YFPC-DPAS (dehydroprecondylocarpine acetate synthase fused at its N-terminus to the C-terminal split YFP fragment) (enzyme)
chain: MAGKSAEEEHPIKAYGWAVKDRTTGILSPFKFSRRATGDDDVRIKILYCGICHTDLASIKNEYEFLSYPLVPGMEIVGIATEVGKDVTKVKVGEKVALSAYLGCCGKCYSCVNELENYCPEVIIGYGTPYHDGTICYGGLSNETVANQSFVLRFPERLSPAGGAPLLSAGITSFSAMRNSGIDKPGLHVGVVGLGGLGHLAVKFAKAFGLKVTVISTTSKKDDAINGLGADGFLLSRDDEQMKAAIGTLDAIIDTLAVVHPIAPLLDLLRSQGKFLLLGAPSQSLELPPIPLLSGGKSIIGSAAGNVKQTQEMLDFAAEHDITANVEIIPIEYINTAMERLDKGDVRYRFVVDIENTLTPPSEL
notes: BiFC fusion expressed transiently inside C. roseus cells; also called YC-DPAS; dihydroprecondylocarpine acetate synthase; not shown: C-terminal split YFP fragment (YFPC) from plasmid pSCA-SPYCE (MR)
B2: TS-YFPN (Tabersonine Synthase fused at its C-terminus to the N-terminal split YFP fragment) (enzyme)
chain: MGSSDETIFDLPPYIKVFKDGRVERLHSSPYVPPSLNDPETGGVSWKDVPISSVVSARIYLPKINNHDEKLPIIVYFHGAGFCLESAFKSFFHTYVKHFVAEAKAIAVSVEFRLAPENHLPAAYEDCWEALQWVASHVGLDISSLKTCIDKDPWIINYADFDRLYLWGDSTGANIVHNTLIRSGKEKLNGGKVKILGAILYYPYFLIRTSSKQSDYMENEYRSYWKLAYPDAPGGNDNPMINPTAENAPDLAGYGCSRLLISMVADEARDITLLYIDALEKSGWKGELDVADFDKQYFELFEMETEVAKNMLRRLASFIK
notes: BiFC fusion expressed transiently inside C. roseus cells; also called TS-YN; not shown: N-terminal split YFP fragment (YFPN) from plasmid pSCA-SPYNE173

Tests used:
[1] = molecular target: T1, LAMT-YFPN (loganic acid …); assay: BiFC in transiently transformed C. roseus cells
Protocol: (§1) Interaction of DPAS with TS and CS. DPAS/CS and DPAS/TS interactions were analyzed by BiFC in C. roseus cells transiently transformed by distinct combinations of plasmids encoding fusions with the two split YFP fragments, YFPN (YN) and YFPC (YC) as indicated on each pictures of the first row (A, D, G, J, M). Identification of transiently transformed cells was achieved by co-transformation with the nucleus (nuc)-CFP marker(B, E, H, K, N). […] Interactions of DPAS and TS with loganic acid methyltransferase (LAMT)-YN and LAMT-YC were also studied to evaluate the specificity of DPAS/TS interactions. Cell morphology is observed with differential interference contrast (DIC) (C, F, I, L, O). Scale bars, 10 μm.
(§2) Transient transformation of C. roseus cells by particle bombardment and fluorescence imaging were performed. Briefly, C. roseus plated cells were bombarded with DNA-coated gold particles (1 μm) and 1,100 psi rupture disc at a stopping-screen-to-target distance of 6 cm, using the Bio-Rad PDS1000/He system. Cells were cultivated for 16 h to 38 h (DPAS, CS and TS) or up to 96 h for PAS before being harvested and observed. The subcellular localization was determined using an Olympus BX-51 epifluorescence microscope equipped with an Olympus DP-71 digital camera and a combination of YFP and CFP filters. […]

[2] = molecular target: T2, LAMT-YFPC (loganic acid …); assay: BiFC in transiently transformed C. roseus cells
Protocol: as §1, §2

Row | Binder | binding result [1] | binding result [2]
1 | B1 | no binding | –
2 | B2 | – | no binding

From patent US20210269836A1 (JOHN INNES CENTRE, published 2021)
